Results published in publication PMC2887783 (2010).

B1: AIP4 PRR/WWI-IV 155-486 (protein)
chain: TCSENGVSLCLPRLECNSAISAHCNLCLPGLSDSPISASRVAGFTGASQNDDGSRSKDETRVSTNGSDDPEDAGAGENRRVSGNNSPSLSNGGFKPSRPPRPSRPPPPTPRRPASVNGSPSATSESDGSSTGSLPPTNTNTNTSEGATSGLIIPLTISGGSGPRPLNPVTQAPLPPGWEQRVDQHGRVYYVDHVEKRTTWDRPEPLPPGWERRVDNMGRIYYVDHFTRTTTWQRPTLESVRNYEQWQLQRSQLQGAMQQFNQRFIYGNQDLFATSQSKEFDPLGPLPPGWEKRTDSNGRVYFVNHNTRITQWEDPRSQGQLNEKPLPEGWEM

Experiments:
AIP4 HECT domain HECT = AIP4 HECT domain HECT (Homo sapiens, UniProt Q96J02); assay: ELISA
AIP4 PRR/WWI-IV 155-486 [1] = molecular target: B1; assay: ELISA
AIP4 PRR/WWI-IV 155-486 [2] = molecular target: B1; assay: competition ELISA
AIP4 PRR/WWI-IV 155-486 [3] = molecular target: B1; assay: competition ELISA; remark: listed apart in the source

Chain of AIP4 PRR/WWI-IV 155-486 (Q96J02 155-486): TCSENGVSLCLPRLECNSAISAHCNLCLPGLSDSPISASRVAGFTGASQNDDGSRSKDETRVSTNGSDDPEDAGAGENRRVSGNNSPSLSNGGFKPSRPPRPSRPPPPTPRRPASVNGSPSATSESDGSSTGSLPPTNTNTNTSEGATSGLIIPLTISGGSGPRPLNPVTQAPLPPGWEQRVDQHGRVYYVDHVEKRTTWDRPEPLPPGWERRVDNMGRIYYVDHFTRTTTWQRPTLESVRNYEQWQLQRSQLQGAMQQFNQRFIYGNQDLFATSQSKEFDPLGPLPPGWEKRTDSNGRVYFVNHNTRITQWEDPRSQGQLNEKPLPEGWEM
Chain of AIP4 HECT domain HECT (Q96J02 566-903): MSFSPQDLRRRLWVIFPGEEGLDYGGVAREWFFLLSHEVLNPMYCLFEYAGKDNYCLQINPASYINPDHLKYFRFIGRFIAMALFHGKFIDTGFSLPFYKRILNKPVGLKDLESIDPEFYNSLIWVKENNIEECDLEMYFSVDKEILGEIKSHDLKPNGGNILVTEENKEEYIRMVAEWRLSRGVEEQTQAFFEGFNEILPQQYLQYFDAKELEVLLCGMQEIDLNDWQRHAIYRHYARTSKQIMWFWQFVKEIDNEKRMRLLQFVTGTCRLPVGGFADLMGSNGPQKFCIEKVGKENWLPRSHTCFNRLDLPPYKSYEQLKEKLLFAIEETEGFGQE

B1
Kd (AIP4 HECT domain HECT): 2 µM

B2: spartin 155-367 (protein)
chain: APASLSLPSQSCPAEAPPAYTPQAAEGHYTVSYGTDSGEFSSVGEEFYRNHSQPPPLETLGLDADELILIPNGVQIFFVNPAGEVSAPSYPGYLRIVRFLDNSLDTVLNRPPGFLQVCDWLYPLVPDRSPVLKCTAGAYMFPDTMLQAAGCFVGVVLSSELPEDDRELFEDLLRQMSDLRLQANWNRAEEENEFQIPGRTRPSSDQLKEASGT
Kd (AIP4 PRR/WWI-IV 155-486 [1]): 0.34 µM
Ki (AIP4 PRR/WWI-IV 155-486 [2]): 0.21 µM
IC50 (AIP4 PRR/WWI-IV 155-486 [3]): 0.56 µM
